Biological target: human c-type lysozyme purified from human neutrophils (HL) (human) (UniProt P61626)
UniProt P61626, sequence (P61626 19-148): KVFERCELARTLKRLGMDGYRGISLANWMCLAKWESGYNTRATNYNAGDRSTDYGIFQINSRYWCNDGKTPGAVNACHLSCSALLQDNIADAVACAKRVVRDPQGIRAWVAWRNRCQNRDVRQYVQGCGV

recombinant, mature Neisseria gonorrhoeae Adhesin Complex Protein (rACP) (natural protein)
percent of HL hydrolytic activity restored in the presence of rACP by pooled terminal RO serum (polyclonal) of mice immunized with rACP alone: 19.3% | percent of HL hydrolytic activity restored in the presence of rACP by pooled terminal RO serum (polyclonal) of mice immunized with rACP+CpG: 59.9% | percent of HL hydrolytic activity restored in the presence of rACP by pooled terminal SV serum (polyclonal) of mice immunized with rACP alone: 30.1% | percent of HL hydrolytic activity restored in the presence of rACP by pooled terminal SV serum (polyclonal) of mice immunized with rACP+CpG: 75.2%

Reference: publication PMC12045373
